Experiments:
[1] = biological target: T1, rNPR1-ANP complex (rat, UniProt P01160 124-151 (human entry), limits assumed); assay: FabCys, parental value by Octet (table comment), as in Table 14
T1 construct: rNPR1 antigen in the presence of ANP; also called rNPR1 + 100 nM ANP
T1 sequence: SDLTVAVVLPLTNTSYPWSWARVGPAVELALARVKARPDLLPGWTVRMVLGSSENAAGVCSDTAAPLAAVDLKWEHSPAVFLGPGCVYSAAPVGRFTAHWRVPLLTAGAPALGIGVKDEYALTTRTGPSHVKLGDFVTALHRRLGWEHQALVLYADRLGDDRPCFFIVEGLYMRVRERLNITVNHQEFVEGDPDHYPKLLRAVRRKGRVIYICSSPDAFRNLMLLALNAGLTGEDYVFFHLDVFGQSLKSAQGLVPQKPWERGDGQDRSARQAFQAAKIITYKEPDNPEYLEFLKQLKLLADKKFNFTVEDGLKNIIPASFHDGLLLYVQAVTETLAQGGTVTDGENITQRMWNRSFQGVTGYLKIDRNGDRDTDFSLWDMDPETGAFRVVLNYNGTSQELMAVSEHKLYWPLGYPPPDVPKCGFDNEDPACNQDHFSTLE
T1 sequence (peptide): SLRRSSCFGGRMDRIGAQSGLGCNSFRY

[2] = biological target: T2, human Natriuretic Peptide Receptor 1 (hNPR1) (human, UniProt P16066 33-473, limits assumed); assay: as above
T2 construct: pannings used NPR1-hFc; also called NPR1-hFc
T2 sequence: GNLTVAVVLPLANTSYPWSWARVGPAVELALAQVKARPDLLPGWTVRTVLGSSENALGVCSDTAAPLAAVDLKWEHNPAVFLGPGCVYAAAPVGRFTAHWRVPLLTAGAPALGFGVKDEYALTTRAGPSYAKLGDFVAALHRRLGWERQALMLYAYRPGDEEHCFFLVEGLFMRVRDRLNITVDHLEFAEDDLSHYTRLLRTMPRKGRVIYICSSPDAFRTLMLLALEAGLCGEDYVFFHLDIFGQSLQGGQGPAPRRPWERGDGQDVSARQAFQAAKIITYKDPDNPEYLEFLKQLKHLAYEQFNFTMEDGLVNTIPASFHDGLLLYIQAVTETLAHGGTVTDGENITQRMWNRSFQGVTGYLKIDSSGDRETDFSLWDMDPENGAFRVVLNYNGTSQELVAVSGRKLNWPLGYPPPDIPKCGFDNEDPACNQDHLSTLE

[3] = biological target: T3, hNPR1-ANP complex (human, UniProt P01160 124-151, limits assumed); assay: as above
T3 construct: hNPR1 antigen in the presence of ANP; also called hNPR1 + 100 nM ANP
T3 sequence: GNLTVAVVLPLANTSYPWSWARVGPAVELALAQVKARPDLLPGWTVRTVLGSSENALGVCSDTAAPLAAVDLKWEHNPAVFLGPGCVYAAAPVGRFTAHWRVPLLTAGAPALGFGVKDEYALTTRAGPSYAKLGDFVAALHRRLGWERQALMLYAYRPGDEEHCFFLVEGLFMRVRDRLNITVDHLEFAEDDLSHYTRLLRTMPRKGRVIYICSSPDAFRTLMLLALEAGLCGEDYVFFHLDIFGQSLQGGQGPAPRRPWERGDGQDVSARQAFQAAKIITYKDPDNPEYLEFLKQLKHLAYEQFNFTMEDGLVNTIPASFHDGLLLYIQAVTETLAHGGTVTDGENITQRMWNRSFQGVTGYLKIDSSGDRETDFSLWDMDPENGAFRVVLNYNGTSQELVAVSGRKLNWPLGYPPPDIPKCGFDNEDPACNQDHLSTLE
T3 sequence (peptide): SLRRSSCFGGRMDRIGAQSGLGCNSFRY

[4] = biological target: T4, rat NPR1 (rNPR1) (rat, UniProt P18910 29-469, limits assumed); assay: as above
T4 construct: Soluble antigen
T4 sequence: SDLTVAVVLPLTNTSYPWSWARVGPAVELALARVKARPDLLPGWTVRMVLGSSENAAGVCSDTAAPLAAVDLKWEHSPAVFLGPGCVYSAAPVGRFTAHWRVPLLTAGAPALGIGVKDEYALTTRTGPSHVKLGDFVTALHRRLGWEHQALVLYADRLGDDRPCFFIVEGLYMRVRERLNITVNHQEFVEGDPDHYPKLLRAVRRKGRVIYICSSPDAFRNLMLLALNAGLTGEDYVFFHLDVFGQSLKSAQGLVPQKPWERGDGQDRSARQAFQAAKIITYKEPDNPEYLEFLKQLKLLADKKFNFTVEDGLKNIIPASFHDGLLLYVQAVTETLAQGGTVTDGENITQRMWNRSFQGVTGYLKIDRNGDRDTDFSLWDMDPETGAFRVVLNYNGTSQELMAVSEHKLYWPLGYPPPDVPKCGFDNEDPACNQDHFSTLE

[5] = biological target: T1, rNPR1-ANP complex; assay: Octet, FabCys
[6] = biological target: T2, human Natriuretic Peptide Receptor 1 …; assay: Octet, FabCys
[7] = biological target: T3, hNPR1-ANP complex; assay: Octet, FabCys
[8] = biological target: T4, rat NPR1 (rNPR1); assay: Octet, FabCys
[9] = biological target: T1, rNPR1-ANP complex; assay: FabCys affinity (Octet per Table 18 comment)
[10] = biological target: T2, human Natriuretic Peptide Receptor 1 …; assay: FabCys affinity (Octet per Table 18 comment)
[11] = biological target: T3, hNPR1-ANP complex; assay: FabCys affinity (Octet per Table 18 comment)
[12] = biological target: T4, rat NPR1 (rNPR1); assay: FabCys affinity (Octet per Table 18 comment)
[13] = biological target: T5, human NPR1 on CHO-K1 cells (human, UniProt P16066 33-1061); assay: cell-based or functional assay
T5 sequence: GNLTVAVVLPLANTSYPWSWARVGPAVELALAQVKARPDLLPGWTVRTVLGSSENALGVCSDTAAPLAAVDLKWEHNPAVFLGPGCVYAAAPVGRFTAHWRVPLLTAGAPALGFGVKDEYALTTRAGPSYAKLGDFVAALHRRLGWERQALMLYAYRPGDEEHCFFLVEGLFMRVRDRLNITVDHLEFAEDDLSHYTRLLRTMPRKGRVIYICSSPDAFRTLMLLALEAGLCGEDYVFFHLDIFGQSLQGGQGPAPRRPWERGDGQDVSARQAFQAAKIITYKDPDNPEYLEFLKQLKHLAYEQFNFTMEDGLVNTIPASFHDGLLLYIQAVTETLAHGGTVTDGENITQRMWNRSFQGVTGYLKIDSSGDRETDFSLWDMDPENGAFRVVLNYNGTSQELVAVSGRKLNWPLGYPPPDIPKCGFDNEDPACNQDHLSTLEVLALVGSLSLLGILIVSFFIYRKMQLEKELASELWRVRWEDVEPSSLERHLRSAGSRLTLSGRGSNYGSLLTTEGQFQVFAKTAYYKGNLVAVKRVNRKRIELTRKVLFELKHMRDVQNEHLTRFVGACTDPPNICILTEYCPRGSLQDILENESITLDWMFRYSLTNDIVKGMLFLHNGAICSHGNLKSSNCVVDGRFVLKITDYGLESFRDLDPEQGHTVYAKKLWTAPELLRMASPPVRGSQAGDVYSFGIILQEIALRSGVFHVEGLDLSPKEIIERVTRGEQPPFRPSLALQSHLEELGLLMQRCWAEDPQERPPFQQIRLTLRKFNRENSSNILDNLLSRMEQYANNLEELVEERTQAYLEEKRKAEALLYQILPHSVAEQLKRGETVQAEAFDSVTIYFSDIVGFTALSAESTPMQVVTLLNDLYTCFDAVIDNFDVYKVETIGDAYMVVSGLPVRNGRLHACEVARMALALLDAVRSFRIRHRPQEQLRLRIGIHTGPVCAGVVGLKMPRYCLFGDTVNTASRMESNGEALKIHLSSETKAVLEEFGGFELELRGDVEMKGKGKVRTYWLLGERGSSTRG

[14] = biological target: T1, rNPR1-ANP complex; assay: Octet, FabCys; comment: Heterogenous binding
[15] = biological target: T3, hNPR1-ANP complex; assay: Octet, FabCys; comment: Heterogenous binding
[16] = biological target: T3, hNPR1-ANP complex; assay: ELISA, IgG
[17] = biological target: T6, human NPR1 on CHO-K1 cells in the presence of ANP (human, UniProt P01160 124-151); assay: flow cytometry (FL2-H) on hNPR1 CHO-K1 cells with saturating ANP, IgG titrated; control parental CHO-K1 [panel WW01]
T6 construct: also called hNPR1 CHO K1 + 100 nM ANP
T6 sequence: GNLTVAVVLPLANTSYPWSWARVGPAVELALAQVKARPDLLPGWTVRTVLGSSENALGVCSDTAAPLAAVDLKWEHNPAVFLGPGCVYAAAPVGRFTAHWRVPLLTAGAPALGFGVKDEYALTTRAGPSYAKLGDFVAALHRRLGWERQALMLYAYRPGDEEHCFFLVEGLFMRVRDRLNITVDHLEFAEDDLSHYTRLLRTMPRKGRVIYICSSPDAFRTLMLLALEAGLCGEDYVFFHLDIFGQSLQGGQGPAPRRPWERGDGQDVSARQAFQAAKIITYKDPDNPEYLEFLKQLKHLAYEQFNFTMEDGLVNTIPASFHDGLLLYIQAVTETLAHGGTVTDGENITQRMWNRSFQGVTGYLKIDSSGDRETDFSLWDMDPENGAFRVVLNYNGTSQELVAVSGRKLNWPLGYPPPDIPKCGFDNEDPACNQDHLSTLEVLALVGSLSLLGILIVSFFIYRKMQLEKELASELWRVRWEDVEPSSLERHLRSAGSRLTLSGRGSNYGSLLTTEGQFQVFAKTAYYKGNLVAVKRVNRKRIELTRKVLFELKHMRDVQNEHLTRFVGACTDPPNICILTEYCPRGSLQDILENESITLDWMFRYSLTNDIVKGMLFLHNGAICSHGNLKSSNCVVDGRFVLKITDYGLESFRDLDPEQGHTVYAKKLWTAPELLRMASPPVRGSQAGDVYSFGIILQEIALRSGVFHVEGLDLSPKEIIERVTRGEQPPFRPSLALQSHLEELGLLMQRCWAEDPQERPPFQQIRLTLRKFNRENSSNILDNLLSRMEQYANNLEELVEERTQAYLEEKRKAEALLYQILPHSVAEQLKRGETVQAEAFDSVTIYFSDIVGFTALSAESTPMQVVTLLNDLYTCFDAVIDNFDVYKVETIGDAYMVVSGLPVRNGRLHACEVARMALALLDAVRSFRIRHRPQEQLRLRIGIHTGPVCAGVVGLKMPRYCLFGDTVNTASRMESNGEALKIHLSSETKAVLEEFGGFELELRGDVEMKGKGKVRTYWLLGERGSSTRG
T6 sequence (peptide): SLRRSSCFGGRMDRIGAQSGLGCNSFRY

[18] = biological target: T6, human NPR1 on CHO-K1 cells in the …; assay: flow cytometry, hNPR1 CHO-K1 cells, IgG
[19] = biological target: T5, human NPR1 on CHO-K1 cells; assay: flow cytometry, hNPR1 CHO-K1 cells, IgG
[20] = biological target: T2, human Natriuretic Peptide Receptor 1 …; assay: FabCys, parental value as in Table 14 (no method comment)
[21] = biological target: T3, hNPR1-ANP complex; assay: as above
[22] = biological target: T2, human Natriuretic Peptide Receptor 1 …; assay: FabCys affinity determination
[23] = biological target: T3, hNPR1-ANP complex; assay: FabCys affinity determination

B1: YY06 (FabCys format) (Fab, V domains shown)
VH: EVQLLESGGGLVQPGGSLRLSCAASGFTFSSYAISWVRQAPGKGLEWVSAISGSGGSTYYAESVKGRFTISRDNSKNTLYLQMNSLRAEDTAVYYCARPYLGDRRSYGFDHWGQGTLVTVSS
VL: QSALTQPASVSGSPGQSITISCTGTSSDVGSYNLVSWYQQHPGKAPKLMIYEGSKRPSGVSNRFSGSKSGNTASLTISGLQAEDEADYYCSSYGFHIVVVVFGGGTKLTVL
notes: Monovalent FabCys
Kd [1]: 1400 nM
Kd [2]: 0.5 nM
Kd [3]: 1 nM
Kd [4]: 1600 nM
Kd [5]: 38 nM
Kd [6]: 0.62 nM
Kd [7]: 0.8 nM
Kd [8]: 100 nM
Kd [9]: 1400 nM
Kd [10]: 0.5 nM
Kd [11]: 1 nM
Kd [12]: 1600 nM
cGMP conc [nM] at 1 µM FabCys, +0.075 nM ANP [13]: 75 nM
cGMP conc [nM] at 1 µM FabCys, without ANP [13]: 20 nM

B2: YY01 (FabCys format) (Fab, V domains shown)
VH: EVQLVESGGGLVQPGGSLRLSCAASGFTFSSYWISWVRQAPGKGLEWVANIKQSGSETYYVESVKGRFTISRDNAKNSLYLQMNSLRAEDTAVYYCARSLRRRSTEHAGFDVWGQGTLVTVSS
VL: DIQMTQSPSSLSASVGDRVTITCRASQGISNYLAWYQQKPGKVPKLLIYAASTLQSGVPSRFSGSGSGTDFTLTISSLQPEDVATYYCQQADKFPYTFGQGTKVEIK
notes: Monovalent FabCys
Kd [14]: 8.8 nM
Kd [15]: 26 nM
Kd [1]: 14 nM
Kd [3]: 16 nM
Kd [9]: 14 nM
Kd [11]: 16 nM
cGMP conc [nM] at 1 µM FabCys, +0.075 nM ANP [13]: 46 nM
cGMP conc [nM] at 1 µM FabCys, without ANP [13]: 15 nM

B3: WW01 (IgG format) (antibody, V domains shown)
VH: QVQLLESGGGLVQPGGSLRLSCAASGFTFNTHYIHWVRQAPGKGLEWVSSISGSGSNTYYADSVKGRFTISRDNSKNTLYLQMNSLRAEDTAVYYCARERGYVYYHMFDPWGQGTLVTVSS
VL: DIVLTQSPATLSLSPGERATLSCRASQSITRNYLAWYQQKPGQAPRLLIYGASSRATGIPARFSGSGSGTDFTLTISSLEPEDFAVYYCQQHSMYPRTFGQGTKVEIKR
notes: also called WW01_LALA
EC50 [16]: 1 nM
EC50 (read off the curve) [17]: ~3 nM
flow cytometry S/BG at 2 µM IgG [18]: 222 S/BG
flow cytometry S/BG at 2 µM IgG [19]: 19.9 S/BG

B4: YY07 (FabCys format) (Fab, V domains shown)
VH: EVQLVQSGAEVKKPGESLKISCKGSGYSFTSYWISWVRQMPGKGLEWMGIIYPGTSYTRYSPSFQGQVTISADKSISTAYLQWSSLKASDTAMYYCARGSLPGLLGFDHWGQGTLVTVSS
VL: QSVLTQPPSVSGAPGQRVTISCTGSSSNIGAGYDVHWYQQLPGTAPKLLIYGNSNRPNGVPDRFSGSKSGTSASLAITGLQAEDEADYYCQSYDSPTSSSVFGGGTKLTVL
notes: Monovalent FabCys
Kd [20]: 1.8 nM
Kd [21]: 590 nM
cGMP conc [nM] at 1 µM FabCys, +0.075 nM ANP [13]: 88 nM
cGMP conc [nM] at 1 µM FabCys, without ANP [13]: 77 nM
Kd [22]: 1.8 nM
Kd [23]: 590 nM

Source: US20240052042A1 (Novartis, published 2024)
